For this assay, the target named is GST-aPKCt. Description: co-immunoprecipitation from HEK cells transfected with HA-GSK3β, GST-aPKCt and myc-p62; anti-HA IP, anti-GST blot, densitometry; with against without p62.

Sequence of Hemagglutinin (HA)-tagged GSK3β (enzyme) (P49841 whole entry): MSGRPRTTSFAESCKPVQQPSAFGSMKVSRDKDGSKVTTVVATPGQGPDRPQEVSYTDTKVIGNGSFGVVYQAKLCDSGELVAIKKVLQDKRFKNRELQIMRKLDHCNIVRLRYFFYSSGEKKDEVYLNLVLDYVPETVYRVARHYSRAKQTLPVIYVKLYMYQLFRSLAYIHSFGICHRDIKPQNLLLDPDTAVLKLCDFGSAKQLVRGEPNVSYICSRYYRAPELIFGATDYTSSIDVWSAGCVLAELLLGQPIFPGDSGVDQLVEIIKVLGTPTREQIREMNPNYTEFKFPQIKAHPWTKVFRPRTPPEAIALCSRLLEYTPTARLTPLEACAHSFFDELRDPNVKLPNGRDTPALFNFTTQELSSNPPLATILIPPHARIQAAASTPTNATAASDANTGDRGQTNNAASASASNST

Regarding “Hemagglutinin (HA)-tagged GSK3β (enzyme)”, the fold enhancement of the interaction in the presence of p62 stood at 2 fold.

For the origin of these results see US7608412.
